The assay addresses endothelial nitric oxide synthase (eNOS), endogenous, in human resistance arteries (human) (UniProt P29474). Kind of assay: cell-based or functional assay.

endothelial nitric oxide synthase (eNOS), endogenous, in human resistance arteries (human), sequence (P29474 2-1203 limits assumed): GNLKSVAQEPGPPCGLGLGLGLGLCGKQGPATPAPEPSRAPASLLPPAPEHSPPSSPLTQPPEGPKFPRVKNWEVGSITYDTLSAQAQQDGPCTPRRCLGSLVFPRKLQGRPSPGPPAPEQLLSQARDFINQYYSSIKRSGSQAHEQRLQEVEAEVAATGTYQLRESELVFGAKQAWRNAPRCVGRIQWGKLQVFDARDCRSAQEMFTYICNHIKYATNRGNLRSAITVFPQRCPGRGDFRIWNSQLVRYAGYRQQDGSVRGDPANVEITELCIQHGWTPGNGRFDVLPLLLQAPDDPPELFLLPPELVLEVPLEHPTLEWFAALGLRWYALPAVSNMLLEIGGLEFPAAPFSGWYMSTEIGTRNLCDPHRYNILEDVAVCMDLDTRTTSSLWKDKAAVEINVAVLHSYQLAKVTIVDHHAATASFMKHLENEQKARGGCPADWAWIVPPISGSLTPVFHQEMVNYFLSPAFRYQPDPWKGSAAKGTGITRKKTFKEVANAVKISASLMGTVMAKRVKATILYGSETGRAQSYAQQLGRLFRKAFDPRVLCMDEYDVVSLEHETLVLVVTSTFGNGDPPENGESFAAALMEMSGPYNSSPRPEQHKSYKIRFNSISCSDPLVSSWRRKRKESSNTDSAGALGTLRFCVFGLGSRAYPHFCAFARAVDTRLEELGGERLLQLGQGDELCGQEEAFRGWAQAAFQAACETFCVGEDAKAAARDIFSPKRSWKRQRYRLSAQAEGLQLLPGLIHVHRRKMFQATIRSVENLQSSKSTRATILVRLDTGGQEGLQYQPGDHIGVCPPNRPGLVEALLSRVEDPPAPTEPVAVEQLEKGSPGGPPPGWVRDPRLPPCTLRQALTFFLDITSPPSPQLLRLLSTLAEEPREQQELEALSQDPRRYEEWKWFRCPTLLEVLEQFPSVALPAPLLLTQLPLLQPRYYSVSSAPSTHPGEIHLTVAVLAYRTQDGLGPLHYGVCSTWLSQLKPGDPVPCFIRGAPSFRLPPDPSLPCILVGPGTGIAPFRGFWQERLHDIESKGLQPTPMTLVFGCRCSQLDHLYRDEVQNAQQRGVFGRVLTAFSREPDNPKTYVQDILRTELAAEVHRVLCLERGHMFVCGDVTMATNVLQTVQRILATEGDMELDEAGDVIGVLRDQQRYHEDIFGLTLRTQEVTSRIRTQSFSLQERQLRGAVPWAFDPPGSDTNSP

On to “alpha globin mimetic peptide HbαX with N-terminal HIV-tat tag”, for which the Bottom (4-PL minimum of phenylephrine-induced constriction, % of baseline diameter), PE + Mimetic + LNAME, human omental arteries, pressure myography (% of baseline diameter) was determined as 41.9 and the Bottom (4-PL minimum of phenylephrine-induced constriction, % of baseline diameter), PE + Mimetic, human omental arteries, pressure myography, peptide 5 µmol/L (% of baseline diameter) was determined as 64.6.
